Data on seven molecules can be found in paper PMC3235114, “Characterization of the Partitioning System of Myxococcus Plasmid pMF1”.

For series [1], the target named is T1, ParB (ORF23, pMF1.23 product), His-tagged (Myxococcus fulvus 124B02 plasmid pMF1, UniProt B0YR32 12-86).
T1 sequence: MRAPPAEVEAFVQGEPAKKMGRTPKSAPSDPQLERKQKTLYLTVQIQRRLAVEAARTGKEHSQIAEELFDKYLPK
Briefly: EMSA; EMSA: 12 mM HEPES, 4 mM Tris-HCl pH 8.0, 60 mM KCl, 5 mM MgCl2, 0.1 mM EDTA, 1 ug poly(dI-dC), 2% glycerol, 12 pmol probe, 30 min 30 C; footprint: HEMG (50 mM EDTA as printed, 50 mM KCl, 12.5 mM HEPES pH 7.6, 6 mM MgCl2, 5% glycerol), 20 mM HEPES pH 7.6, 5 ug poly(dI-dC), 30 min 30 C. As to conditions: protein: recombinant; tags: N-terminal His6 (pET-15b); label: 3' biotin; blunt. (Mobility shift assays separate free from complexed probe on a gel.)

In series [2] the target is T2, ParC (ORF21, pMF1.21 product) (Myxococcus fulvus 124B02 plasmid pMF1, UniProt B0YR30 1-87).
T2 sequence: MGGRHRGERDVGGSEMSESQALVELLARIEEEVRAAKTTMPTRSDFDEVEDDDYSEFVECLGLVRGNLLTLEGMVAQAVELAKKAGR
Briefly: EMSA; data not shown; EMSA: 12 mM HEPES, 4 mM Tris-HCl pH 8.0, 60 mM KCl, 5 mM MgCl2, 0.1 mM EDTA, 1 ug poly(dI-dC), 2% glycerol, 12 pmol probe, 30 min 30 C; footprint: HEMG (50 mM EDTA as printed, 50 mM KCl, 12.5 mM HEPES pH 7.6, 6 mM MgCl2, 5% glycerol), 20 mM HEPES pH 7.6, 5 ug poly(dI-dC), 30 min 30 C. As to conditions: protein: recombinant, tags: His6 (pET-15b), label: 3' biotin.

The target of series [3] is T1, ParB (ORF23, pMF1.23 product), …. Briefly: EMSA; up to 1000 ng protein; EMSA: 12 mM HEPES, 4 mM Tris-HCl pH 8.0, 60 mM KCl, 5 mM MgCl2, 0.1 mM EDTA, 1 ug poly(dI-dC), 2% glycerol, 12 pmol probe, 30 min 30 C; footprint: HEMG (50 mM EDTA as printed, 50 mM KCl, 12.5 mM HEPES pH 7.6, 6 mM MgCl2, 5% glycerol), 20 mM HEPES pH 7.6, 5 ug poly(dI-dC), 30 min 30 C. Conditions: protein: recombinant; tags: N-terminal His6 (pET-15b); label: 3' biotin.

Series [4] concerns the target T3, ParB (ORF23, pMF1.23 product), His-tag free (Myxococcus fulvus 124B02 plasmid pMF1, UniProt B0YR32 12-86).
T3 sequence: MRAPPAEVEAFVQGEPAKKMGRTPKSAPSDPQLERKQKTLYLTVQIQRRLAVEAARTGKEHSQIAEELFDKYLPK
Briefly: EMSA; similar affinity to His-tagged protein; EMSA: 12 mM HEPES, 4 mM Tris-HCl pH 8.0, 60 mM KCl, 5 mM MgCl2, 0.1 mM EDTA, 1 ug poly(dI-dC), 2% glycerol, 12 pmol probe, 30 min 30 C; footprint: HEMG (50 mM EDTA as printed, 50 mM KCl, 12.5 mM HEPES pH 7.6, 6 mM MgCl2, 5% glycerol), 20 mM HEPES pH 7.6, 5 ug poly(dI-dC), 30 min 30 C. Conditions: protein: recombinant; tags: none; label: 3' biotin; blunt.

The target in series [5] is T1, ParB (ORF23, pMF1.23 product), …. Briefly: EMSA; poly(dI-dC), 5 mM MgCl2; unlabeled ItA competes; EMSA: 12 mM HEPES, 4 mM Tris-HCl pH 8.0, 60 mM KCl, 5 mM MgCl2, 0.1 mM EDTA, 1 ug poly(dI-dC), 2% glycerol, 12 pmol probe, 30 min 30 C; footprint: HEMG (50 mM EDTA as printed, 50 mM KCl, 12.5 mM HEPES pH 7.6, 6 mM MgCl2, 5% glycerol), 20 mM HEPES pH 7.6, 5 ug poly(dI-dC), 30 min 30 C. Conditions: protein: recombinant; tags: N-terminal His6 (pET-15b); label: 3' biotin; blunt.

The target is the same in series [6]. Briefly: EMSA; unlabeled ItB competes; EMSA: 12 mM HEPES, 4 mM Tris-HCl pH 8.0, 60 mM KCl, 5 mM MgCl2, 0.1 mM EDTA, 1 ug poly(dI-dC), 2% glycerol, 12 pmol probe, 30 min 30 C; footprint: HEMG (50 mM EDTA as printed, 50 mM KCl, 12.5 mM HEPES pH 7.6, 6 mM MgCl2, 5% glycerol), 20 mM HEPES pH 7.6, 5 ug poly(dI-dC), 30 min 30 C. As to conditions: protein: recombinant; tags: N-terminal His6 (pET-15b); label: 3' biotin; blunt.

B1: ItD (dsDNA)
DNA 1: AGAAGTCCAGACATCTGGACATTCAGAAGTCTAGACATCTGGATGTCCAGATGGGG
DNA 2: CCCCATCTGGACATCCAGATGTCTAGACTTCTGAATGTCCAGATGTCTGGACTTCT
Consider B1, for which the binding result in series [1] is reported as “binds”.

B2: non-iteron fragment (dsDNA)
DNA 1: CGGGCGTCACAGGGGGGAACGCGATGTTGGAGGGTCGGAAATGAGCGAGTCG
DNA 2: CGACTCGCTCATTTCCGACCCTCCAACATCGCGTTCCCCCCTGTGACGCCCG
On to B2, for which the binding result in series [2] and in series [3] was “no binding” in each case.

B3: ItE (dsDNA)
DNA 1: AAGTGTCTAGATGTCTAGATGTCT
DNA 2: AGACATCTAGACATCTAGACACTT
In the case of B3, in series [1], the binding result is “binds”.

B4: ItA (dsDNA)
DNA 1: GGAAGTCTGGAAGTCTAGATGTCTAGATGTTTGAATGTTTGGAGTGGG
DNA 2: CCCACTCCAAACATTCAAACATCTAGACATCTAGACTTCCAGACTTCC
Consider B4, for which the figures for the binding result in series [2] (blunt), in series [4] and in series [5] were “no binding”, “binds” and “binds”, respectively.

B5: ItB (dsDNA)
DNA 1: GTGATGTCTAGAGGTCTGGATGTCTAGATGTCTAGATGTCT
DNA 2: AGACATCTAGACATCTAGACATCCAGACCTCTAGACATCAC
Consider B5, for which, in series [6], the binding result is on record as “binds”.

B6: ItC (dsDNA)
DNA 1: AGACATCTGGAAGTCTGGATGTC
DNA 2: GACATCCAGACTTCCAGATGTCT
Consider B6, for which the binding result in series [1] is recorded as “binds”.

B7: ItF (dsDNA)
DNA 1: AGAGGTCTAGGTGTCTGGAAGTCTGGAGGTCTGGATGTC
DNA 2: GACATCCAGACCTCCAGACTTCCAGACACCTAGACCTCT
In the case of B7, in series [1], the binding result is “binds”.
